Source: patent US20220259295A1 (INSERM INSTITUT NATIONAL DE LA SANT ET DE LA RECHERCHE M …, published 2022)
Read-outs that look alike come from different tables or passages of the source.

T1: murine protease nexin-1 (murine, UniProt Q07235 20-397)
T1 sequence (looked up): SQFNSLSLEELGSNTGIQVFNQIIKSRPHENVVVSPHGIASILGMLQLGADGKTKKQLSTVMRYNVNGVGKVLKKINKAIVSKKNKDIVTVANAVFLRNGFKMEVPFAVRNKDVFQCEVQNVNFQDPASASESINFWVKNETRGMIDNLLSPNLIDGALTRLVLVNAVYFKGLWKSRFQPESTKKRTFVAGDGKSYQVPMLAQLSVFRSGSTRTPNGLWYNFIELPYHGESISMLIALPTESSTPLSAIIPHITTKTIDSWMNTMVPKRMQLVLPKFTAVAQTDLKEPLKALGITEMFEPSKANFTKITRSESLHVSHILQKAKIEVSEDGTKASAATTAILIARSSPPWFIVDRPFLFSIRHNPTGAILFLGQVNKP

T2: PN-1 released from TRAP-activated platelets (Homo sapiens (Human), UniProt P07093 20-398)
T2 sequence: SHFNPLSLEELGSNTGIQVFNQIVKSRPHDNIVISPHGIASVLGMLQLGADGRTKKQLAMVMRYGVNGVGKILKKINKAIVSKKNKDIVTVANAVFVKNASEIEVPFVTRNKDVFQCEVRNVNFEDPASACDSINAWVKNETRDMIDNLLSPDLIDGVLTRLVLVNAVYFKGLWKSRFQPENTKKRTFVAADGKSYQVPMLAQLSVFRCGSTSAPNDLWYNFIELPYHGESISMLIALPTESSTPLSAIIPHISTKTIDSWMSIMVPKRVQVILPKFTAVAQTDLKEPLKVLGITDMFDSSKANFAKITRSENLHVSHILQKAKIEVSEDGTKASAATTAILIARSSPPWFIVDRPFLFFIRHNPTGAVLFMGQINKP

T3: human protease nexin-1 (human, UniProt P07093 20-398)
T3 sequence (looked up): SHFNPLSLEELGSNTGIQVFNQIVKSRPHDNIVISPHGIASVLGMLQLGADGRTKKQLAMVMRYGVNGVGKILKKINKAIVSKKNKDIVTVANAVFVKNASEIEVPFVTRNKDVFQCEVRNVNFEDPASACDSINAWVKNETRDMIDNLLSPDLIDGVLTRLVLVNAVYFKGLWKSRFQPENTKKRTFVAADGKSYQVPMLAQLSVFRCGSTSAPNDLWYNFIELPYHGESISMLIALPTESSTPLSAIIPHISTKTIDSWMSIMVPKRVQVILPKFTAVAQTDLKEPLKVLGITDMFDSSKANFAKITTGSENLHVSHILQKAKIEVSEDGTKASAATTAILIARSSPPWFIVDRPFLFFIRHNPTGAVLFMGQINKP

T4: murine protease nexin-1 (murine, UniProt Q07235 20-397)
T4 chain: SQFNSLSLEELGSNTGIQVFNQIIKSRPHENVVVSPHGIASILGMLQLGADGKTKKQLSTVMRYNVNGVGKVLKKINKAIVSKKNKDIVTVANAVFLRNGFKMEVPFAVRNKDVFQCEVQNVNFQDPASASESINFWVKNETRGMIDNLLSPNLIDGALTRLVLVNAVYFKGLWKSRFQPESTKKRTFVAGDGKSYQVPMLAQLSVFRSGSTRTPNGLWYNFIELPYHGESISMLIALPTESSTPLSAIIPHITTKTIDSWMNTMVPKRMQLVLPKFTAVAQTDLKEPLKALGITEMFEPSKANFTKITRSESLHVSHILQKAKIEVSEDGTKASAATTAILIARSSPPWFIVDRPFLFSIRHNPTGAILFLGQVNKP

T5: human protease nexin-1 (human, UniProt P07093 20-398)
T5 chain: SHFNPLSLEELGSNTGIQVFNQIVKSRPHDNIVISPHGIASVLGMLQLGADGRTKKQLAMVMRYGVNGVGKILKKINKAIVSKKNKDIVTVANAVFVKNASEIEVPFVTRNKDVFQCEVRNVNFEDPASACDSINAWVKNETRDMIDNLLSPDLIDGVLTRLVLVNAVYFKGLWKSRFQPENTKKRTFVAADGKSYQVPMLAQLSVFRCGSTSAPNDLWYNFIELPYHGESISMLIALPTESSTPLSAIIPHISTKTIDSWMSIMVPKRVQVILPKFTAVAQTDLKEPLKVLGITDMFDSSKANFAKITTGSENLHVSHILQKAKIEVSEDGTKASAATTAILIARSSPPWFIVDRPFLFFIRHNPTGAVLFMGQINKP

T6: murine plasminogen activator inhibitor-1 (murine, UniProt P22777 23-402)
T6 construct: also called mPAI-1; murine PAI-1
T6 sequence (looked up): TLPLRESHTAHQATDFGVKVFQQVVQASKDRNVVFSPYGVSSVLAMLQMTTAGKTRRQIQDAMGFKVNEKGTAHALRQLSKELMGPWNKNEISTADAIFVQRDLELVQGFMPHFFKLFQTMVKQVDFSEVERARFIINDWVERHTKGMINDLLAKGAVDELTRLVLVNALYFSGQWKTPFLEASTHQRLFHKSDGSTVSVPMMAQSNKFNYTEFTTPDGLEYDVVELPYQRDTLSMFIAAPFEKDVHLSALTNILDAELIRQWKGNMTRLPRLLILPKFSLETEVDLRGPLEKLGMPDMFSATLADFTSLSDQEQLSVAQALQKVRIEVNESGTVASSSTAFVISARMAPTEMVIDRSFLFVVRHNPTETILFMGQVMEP


Tests used:
[1] = target: T1, murine protease nexin-1; assay: cell-based or functional assay
[2] = target: T2, PN-1 released from TRAP-activated …; assay: cell-based or functional assay
[3] = target: T3, human protease nexin-1; assay: cell-based or functional assay
[4] = target: T7, human plasminogen activator inhibitor-1 (human, UniProt P05121 24-402); assay: specificity test of Example 1 (refers to FIG. 2E-G)
T7 construct: also called hPAI-1; human PAI-1
T7 sequence (P05121 24-402 limits assumed): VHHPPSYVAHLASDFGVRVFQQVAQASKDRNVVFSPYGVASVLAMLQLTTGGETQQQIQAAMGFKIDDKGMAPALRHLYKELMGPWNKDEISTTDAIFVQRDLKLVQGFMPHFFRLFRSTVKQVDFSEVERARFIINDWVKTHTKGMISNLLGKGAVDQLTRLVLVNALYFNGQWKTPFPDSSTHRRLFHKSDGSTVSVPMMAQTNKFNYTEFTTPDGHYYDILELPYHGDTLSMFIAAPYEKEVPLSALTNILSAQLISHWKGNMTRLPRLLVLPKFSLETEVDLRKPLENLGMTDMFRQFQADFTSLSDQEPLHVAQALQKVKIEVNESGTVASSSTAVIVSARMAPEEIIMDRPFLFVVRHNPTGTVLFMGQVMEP

[5] = target: T4, murine protease nexin-1; assay: inhibition of PN-1 activity (residual thrombin activity, chromogenic substrate)
[6] = target: T5, human protease nexin-1; assay: as above
[7] = target: T7, human plasminogen activator inhibitor-1; assay: ELISA, PAI-1 captured on anti-PAI-1 mAb, anti-6xHis detection
[8] = target: T6, murine plasminogen activator inhibitor-1; assay: as above
[9] = target: T4, murine protease nexin-1; assay: inhibition of PN-1 activity (residual thrombin activity, chromogenic substrate)
[10] = target: T5, human protease nexin-1; assay: as above
[11] = target: T7, human plasminogen activator inhibitor-1; assay: non-adsorbed phage ELISA, phage on coated hPAI-1, anti-M13 detection

| Binder | IC50 (thrombin activity assay, 10 nM PN-1, 1 nM thrombin) [1] [nM] | modified prothrombin time (PT), murine plasma with 62.5 nM mPN-1 and 288 nM bivalent VHH [1] [s] | thrombin activity restored (supernatant of TRAP-activated platelets, 0.1 nM thrombin, 1 µM bivalent VHH) [2] [%] | IC50 (thrombin activity assay, 10 nM PN-1, 1 nM thrombin) [3] [nM] | binding result [4] | IC50 [5] [nM] | IC50 [6] [nM] | recovery of thrombin activity (percentage of thrombin alone; 1 nM thrombin, 10 nM PN-1, 10 µM VHH) [1] [%] | recovery of thrombin activity (percentage of thrombin alone; 1 nM thrombin, 10 nM PN-1, 10 µM VHH) [3] [%] | binding result [7] | binding result [8] | IC50 [9] [nM] | IC50 [10] [nM] | binding result [11] |
| --- | --- | --- | --- | --- | --- | --- | --- | --- | --- | --- | --- | --- | --- | --- |
| B11-Bv (VHH, Bivalent (monoparatopic) tandem of two B11 VHHs; also called bivalent hybribody B11-Bv; bivalent VHH B11bv) EVQLQASGGGFVQPGGSLRLSCAASGSTWFREIMGWFRQAPGKEREFVSAISSDPTWHAYYADSVKGRFTISRDNSKNTVYLQMNSLRAEDTATYYCAPLAGTESIHWWDPWHESSYWGQGTQVTVSSAAAEVQLQASGGGFVQPGGSLRLSCAASGSTWFREIMGWFRQAPGKEREFVSAISSDPTWHAYYADSVKGRFTISRDNSKNTVYLQMNSLRAEDTATYYCAPLAGTESIHWWDPWHESSYWGQGTQVTVSSHHHHHH | 825 | 83.5 | 97 | 41 | no binding | 509 | 40 | – | – | – | – | – | – | – |
| B11-A08 (VHH, Bivalent (biparatopic) tandem B11-linker-A08; also called bivalent hybribody B11-A08; bivalent VHH B11A08) EVQLQASGGGFVQPGGSLRLSCAASGSTWFREIMGWFRQAPGKEREFVSAISSDPTWHAYYADSVKGRFTISRDNSKNTVYLQMNSLRAEDTATYYCAPLAGTESIHWWDPWHESSYWGQGTQVTVSSGGGSGGGSGGGSGGGSEVQLQASGGGFVQPGGSLRLSCAASGYYSYSSTMGWFRQAPGKEREFVSAISFYSDMAHYYADSVKGRFTISRDNSKNTVYLQMNSLRAEDTATYYCAAFSKLGKIKYWGQGTQVTVSSHHHHHH | 524 | 93.2 | 100 | 142 | no binding | 395 | 139 | – | – | – | – | – | – | – |
| F06 (VHH, Monovalent VHH from the synthetic hs2dAb library; His-tagged, detected by anti-cMyc or anti-6xHis; also called VHH F06; single domain antibody F06; not shown: cMyc tag and 6xHis tag (pHEN2 vector)) VHH: EVQLQASGGGFVQPGGSLRLSCAASGDTWSLEIMGWFRQAPGKEREFVSAISSEDGWHAYYADSVKGRFTISRDNSKNTVYLQMNSLRAEDTATYYCAKIENWIQAVEGEMSDYWGQGTQVTVSS | 560 | – | – | 290 | – | – | – | 96 | 100 | no binding (tested: 10 µg/mL) | no binding (tested: 10 µg/mL) | 670 | 230 | – |
| A08 (VHH, Monovalent VHH from the synthetic hs2dAb library; His-tagged, detected by anti-cMyc or anti-6xHis; also called VHH A08; single domain antibody A08; not shown: cMyc tag and 6xHis tag (pHEN2 vector)) VHH: EVQLQASGGGFVQPGGSLRLSCAASGYYSYSSTMGWFRQAPGKEREFVSAISFYSDMAHYYADSVKGRFTISRDNSKNTVYLQMNSLRAEDTATYYCAAFSKLGKIKYWGQGTQVTVSS | 2880 | – | – | 960 | – | – | – | 94 | 100 | – | no binding (tested: 10 µg/mL) | 3540 | 1170 | no binding |
| B11 (VHH, Monovalent VHH from the synthetic hs2dAb library, made in E. coli WK6, purified by its His tag, detected by anti-cMyc or anti-6xHis; also called VHH B11; BI 1; not shown: cMyc tag and 6xHis tag (pHEN2 vector)) VHH: EVQLQASGGGFVQPGGSLRLSCAASGSTWFREIMGWFRQAPGKEREFVSAISSDPTWHAYYADSVKGRFTISRDNSKNTVYLQMNSLRAEDTATYYCAPLAGTESIHWWDPWHESSYWGQGTQVTVSS | 1580 | – | – | 50 | no binding | – | – | 92 | 100 | – | no binding (tested: 10 µg/mL) | 1270 | 60 | – |
| B11-F06 (VHH, Bivalent (biparatopic) tandem B11-linker-F06; also called bivalent hybribody B11-F06; bivalent VHH B11F06) EVQLQASGGGFVQPGGSLRLSCAASGSTWFREIMGWFRQAPGKEREFVSAISSDPTWHAYYADSVKGRFTISRDNSKNTVYLQMNSLRAEDTATYYCAPLAGTESIHWWDPWHESSYWGQGTQVTVSSGGGSGGGSGGGSGGGSEVQLQASGGGFVQPGGSLRLSCAASGDTWSLEIMGWFRQAPGKEREFVSAISSEDGWHAYYADSVKGRFTISRDNSKNTVYLQMNSLRAEDTATYYCAKIENWIQAVEGEMSDYWGQGTQVTVSSHHHHHH | 414 | 83.3 | 88 | 62 | no binding | 254 | 68 | – | – | – | – | – | – | – |
